Source: patent US20250043017A1

What was measured:
[1] = molecular target: human PD1 on Jurkat/AP1-luc/hPD1 cells (human) (UniProt Q15116); test: cell-based or functional assay
[2] = molecular target: human 4-1BB expressed with a C-terminal myc-myc-hexahistidine tag (h4-1BB.mmH) (human); test: blocking ELISA, 0.25 nM h4-1BB-mmh binding to coated 6His-Flag-h4-1BBL
Chain of human 4-1BB expressed with a C-terminal myc-myc-hexahistidine tag (h4-1BB.mmH) (human) (chain, as listed by the source limits assumed): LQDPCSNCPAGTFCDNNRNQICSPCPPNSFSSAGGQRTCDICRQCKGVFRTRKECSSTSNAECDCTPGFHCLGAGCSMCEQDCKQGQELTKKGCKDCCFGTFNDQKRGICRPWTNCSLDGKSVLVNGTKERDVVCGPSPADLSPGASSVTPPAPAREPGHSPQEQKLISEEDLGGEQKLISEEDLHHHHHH

Chain of human PD1 on Jurkat/AP1-luc/hPD1 cells (human) (Q15116 25-288): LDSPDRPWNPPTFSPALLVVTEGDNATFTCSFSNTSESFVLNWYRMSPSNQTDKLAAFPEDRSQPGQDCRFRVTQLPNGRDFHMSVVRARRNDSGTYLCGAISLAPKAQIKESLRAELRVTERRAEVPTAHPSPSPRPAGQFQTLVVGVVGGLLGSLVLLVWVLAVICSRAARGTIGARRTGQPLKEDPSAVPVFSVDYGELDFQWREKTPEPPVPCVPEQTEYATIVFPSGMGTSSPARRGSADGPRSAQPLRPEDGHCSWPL

AP-1 luciferase EC50, Jurkat/AP1-luc/hPD1 + WSU-DLCL2/hPD-L1 + CD20xCD3 [1]	AP-1 luciferase MAX (RLU), Jurkat/AP1-luc/hPD1 + WSU-DLCL2/hPD-L1 + CD20xCD3 [1]	% Blocking at 100 nM mAb [2]	Binder
0.29 nM	1.1e+06 RLU	–	REGN2810 (antibody, INN chains, looked up, V domains shown) VH: EVQLLESGGVLVQPGGSLRLSCAASGFTFSNFGMTWVRQAPGKGLEWVSGISGGGRDTYFADSVKGRFTISRDNSKNTLYLQMNSLKGEDTAVYYCVKWGNIYFDYWGQGTLVTVSS VL: DIQMTQSPSSLSASVGDSITITCRASLSINTFLNWYQQKPGKAPNLLIYAASSLHGGVPSRFSGSGSGTDFTLTIRTLQPEDFATYYCQQSSNTPFTFGPGTVVDFR
–	–	72%	Comparator 1 (antibody, INN chains, looked up, V domains shown) VH: EVQLVQSGAEVKKPGESLRISCKGSGYSFSTYWISWVRQMPGKGLEWMGKIYPGDSYTNYSPSFQGQVTISADKSISTAYLQWSSLKASDTAMYYCARGYGIFDYWGQGTLVTVSS VL: SYELTQPPSVSVSPGQTASITCSGDNIGDQYAHWYQQKPGQSPVLVIYQDKNRPSGIPERFSGSNSGNTATLTISGTQAMDEADYYCATYTGFGSLAVFGGGTKLTVLG
